We go through 5 variants from IntAct's records for PubMed 29858488.

B1: Motile sperm domain-containing protein 2 (Homo sapiens), Q8NHP6 (parent)
chain: MAENHAQNKAKLISETRRRFEAEYVTDKSDKYDARDVERLQQDDNWVESYLSWRHNIVDETLKMLDESFQWRKEISVNDLNESSIPRWLLEIGVIYLHGYDKEGNKLFWIRVKYHVKDQKTILDKKKLIAFWLERYAKRENGKPVTVMFDLSETGINSIDMDFVRFIINCFKVYYPKYLSKIVIFDMPWLMNAAFKIVKTWLGPEAVSLLKFTSKNEVQDYVSVEYLPPHMGGTDPFKYSYPPLVDDDFQTPLCENGPITSEDETSSKEDIESDGKETLETISNEEQTPLLKKINPTESTSKAEENEKVDSKVKAFKKPLSVFKGPLLHISPAEELYFGSTESGEKKTLIVLTNVTKNIVAFKVRTTAPEKYRVKPSNSSCDPGASVDIVVSPHGGLTVSAQDRFLIMAAEMEQSSGTGPAELTQFWKEVPRNKVMEHRLRCHTVESSKPNTLTLKDNAFNMSDKTSEDICLQLSRLLESNRKLEDQVQRCIWFQQLLLSLTMLLLAFVTSFFYLLYS
partner: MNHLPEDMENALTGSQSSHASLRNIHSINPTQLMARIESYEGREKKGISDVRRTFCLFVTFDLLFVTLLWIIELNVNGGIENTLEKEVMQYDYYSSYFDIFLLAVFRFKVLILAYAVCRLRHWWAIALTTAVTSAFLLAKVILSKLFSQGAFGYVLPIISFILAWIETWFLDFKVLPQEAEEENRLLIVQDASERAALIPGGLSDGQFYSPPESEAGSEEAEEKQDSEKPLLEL
B2: StAR-related lipid transfer protein 3 (Homo sapiens), Q14849 (parent)
chain: MSKLPRELTRDLERSLPAVASLGSSLSHSQSLSSHLLPPPEKRRAISDVRRTFCLFVTFDLLFISLLWIIELNTNTGIRKNLEQEIIQYNFKTSFFDIFVLAFFRFSGLLLGYAVLRLRHWWVIAVTTLVSSAFLIVKVILSELLSKGAFGYLLPIVSFVLAWLETWFLDFKVLPQEAEEERWYLAAQVAVARGPLLFSGALSEGQFYSPPESFAGSDNESDEEVAGKKSFSAQEREYIRQGKEATAVVDQILAQEENWKFEKNNEYGDTVYTIEVPFHGKTFILKTFLPCPAELVYQEVILQPERMVLWNKTVTACQILQRVEDNTLISYDVSAGAAGGVVSPRDFVNVRRIERRRDRYLSSGIATSHSAKPPTHKYVRGENGPGGFIVLKSASNPRVCTFVWILNTDLKGRLPRYLIHQSLAATMFEFAFHLRQRISELGARA
partner: B1 chain
B3: Motile sperm domain-containing protein 2 (Homo sapiens), Q8NHP6 (parent)
chain: B1 chain
partner: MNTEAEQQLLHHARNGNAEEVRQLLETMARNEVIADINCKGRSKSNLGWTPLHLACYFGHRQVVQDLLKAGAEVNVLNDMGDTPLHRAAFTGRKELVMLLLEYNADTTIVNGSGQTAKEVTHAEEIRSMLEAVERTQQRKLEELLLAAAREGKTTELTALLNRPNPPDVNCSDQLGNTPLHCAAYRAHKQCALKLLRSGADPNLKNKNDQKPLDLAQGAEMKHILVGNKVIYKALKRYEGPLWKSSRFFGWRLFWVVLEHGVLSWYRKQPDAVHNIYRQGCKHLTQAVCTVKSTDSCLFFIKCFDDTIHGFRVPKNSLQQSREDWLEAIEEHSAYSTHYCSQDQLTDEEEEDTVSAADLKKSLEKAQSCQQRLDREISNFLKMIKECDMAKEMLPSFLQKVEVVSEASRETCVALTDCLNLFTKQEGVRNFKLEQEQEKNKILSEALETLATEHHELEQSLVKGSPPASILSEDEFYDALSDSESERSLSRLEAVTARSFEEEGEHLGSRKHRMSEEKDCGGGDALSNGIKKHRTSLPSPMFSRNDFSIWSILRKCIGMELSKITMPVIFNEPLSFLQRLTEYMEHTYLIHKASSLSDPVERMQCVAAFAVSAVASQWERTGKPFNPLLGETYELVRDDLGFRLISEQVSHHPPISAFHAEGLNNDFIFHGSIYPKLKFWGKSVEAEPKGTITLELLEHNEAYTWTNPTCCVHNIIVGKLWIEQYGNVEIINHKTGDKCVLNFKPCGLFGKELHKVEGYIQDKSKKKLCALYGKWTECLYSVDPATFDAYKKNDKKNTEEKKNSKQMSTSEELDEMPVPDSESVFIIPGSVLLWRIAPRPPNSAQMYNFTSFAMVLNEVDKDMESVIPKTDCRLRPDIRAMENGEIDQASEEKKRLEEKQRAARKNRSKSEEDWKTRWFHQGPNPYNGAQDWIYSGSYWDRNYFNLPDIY
B4: Motile sperm domain-containing protein 2 (Homo sapiens), Q8NHP6 (parent)
chain: B1 chain
partner: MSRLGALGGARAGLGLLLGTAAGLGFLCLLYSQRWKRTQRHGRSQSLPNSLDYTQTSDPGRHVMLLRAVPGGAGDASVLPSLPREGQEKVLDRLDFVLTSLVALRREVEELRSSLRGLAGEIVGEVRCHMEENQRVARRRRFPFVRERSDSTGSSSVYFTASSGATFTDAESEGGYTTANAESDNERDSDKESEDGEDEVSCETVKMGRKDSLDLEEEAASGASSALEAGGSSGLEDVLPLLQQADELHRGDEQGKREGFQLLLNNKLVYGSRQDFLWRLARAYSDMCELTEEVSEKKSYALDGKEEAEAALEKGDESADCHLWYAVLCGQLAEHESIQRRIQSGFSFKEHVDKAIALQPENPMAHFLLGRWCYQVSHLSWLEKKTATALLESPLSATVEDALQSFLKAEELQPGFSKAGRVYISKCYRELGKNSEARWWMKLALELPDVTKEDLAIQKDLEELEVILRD
B5: STARD3 N-terminal-like protein (Homo sapiens), O95772 (parent)
chain: B1 partner
partner: B1 chain

One test covers variants of B1. As to conditions: with str3n_human STARD3NL.
As for MAENHAQNKAKLISETRRRFEAEYVTDKSDKYDARDVERLQQDDNWVESYLSWRHNIVDETLKMLDESFQWRKEISVNDLNESSIPRWLLEIGVIYLHGYDKEGNKLFWIRVKYHVKDQKTILDKKKLIAFWLERYAKRENGKPVTVMFDLSETGINSIDMDFVRFIINCFKVYYPKYLSKIVIFDMPWLMNAAFKIVKTWLGPEAVSLLKFTSKNEVQDYVSVEYLPPHMGGTDPFKYSYPPLVDDDFQTPLCENGPITSEDETSSKEDIESDGKETLETISNEEQTPLLKKINPTESTSKAEENEKVDSKVKAFKKPLSVFKGPLLHISPAEELYFGSTESGEKKTLIVLTNVTKNIVAFKVRTTAPEKYRVKPSNSSCDPGASVDIVVSPHGGLTVSAQDDFDIMAAEMEQSSGTGPAELTQFWKEVPRNKVMEHRLRCHTVESSKPNTLTLKDNAFNMSDKTSEDICLQLSRLLESNRKLEDQVQRCIWFQQLLLSLTMLLLAFVTSFFYLLYS [R404D;L406D], the “effect of a mutation on the interaction” value is on record as “disrupting interaction strength”.

The variants in a further test derive from B2. As to conditions: with mspd2_human MOSPD2, Q8NHP6.
With MSKLPRELTRDLERSLPAVASLGSSLSHSQSLSSHLLPPPEKRRAISDVRRTFCLFVTFDLLFISLLWIIELNTNTGIRKNLEQEIIQYNFKTSFFDIFVLAFFRFSGLLLGYAVLRLRHWWVIAVTTLVSSAFLIVKVILSELLSKGAFGYLLPIVSFVLAWLETWFLDFKVLPQEAEEERWYLAAQVAVARGPLLFSGALSEGQAASPPESFAGSDNESDEEVAGKKSFSAQEREYIRQGKEATAVVDQILAQEENWKFEKNNEYGDTVYTIEVPFHGKTFILKTFLPCPAELVYQEVILQPERMVLWNKTVTACQILQRVEDNTLISYDVSAGAAGGVVSPRDFVNVRRIERRRDRYLSSGIATSHSAKPPTHKYVRGENGPGGFIVLKSASNPRVCTFVWILNTDLKGRLPRYLIHQSLAATMFEFAFHLRQRISELGARA [F207A;Y208A], the “effect of a mutation on the interaction” value is listed as “disrupting interaction strength”.

A further test covers variants of B3. As to conditions: with osbl1_human OSBPL1A.
Turning to MAENHAQNKAKLISETRRRFEAEYVTDKSDKYDARDVERLQQDDNWVESYLSWRHNIVDETLKMLDESFQWRKEISVNDLNESSIPRWLLEIGVIYLHGYDKEGNKLFWIRVKYHVKDQKTILDKKKLIAFWLERYAKRENGKPVTVMFDLSETGINSIDMDFVRFIINCFKVYYPKYLSKIVIFDMPWLMNAAFKIVKTWLGPEAVSLLKFTSKNEVQDYVSVEYLPPHMGGTDPFKYSYPPLVDDDFQTPLCENGPITSEDETSSKEDIESDGKETLETISNEEQTPLLKKINPTESTSKAEENEKVDSKVKAFKKPLSVFKGPLLHISPAEELYFGSTESGEKKTLIVLTNVTKNIVAFKVRTTAPEKYRVKPSNSSCDPGASVDIVVSPHGGLTVSAQDDFDIMAAEMEQSSGTGPAELTQFWKEVPRNKVMEHRLRCHTVESSKPNTLTLKDNAFNMSDKTSEDICLQLSRLLESNRKLEDQVQRCIWFQQLLLSLTMLLLAFVTSFFYLLYS [R404D;L406D], the “effect of a mutation on the interaction” value is “disrupting interaction strength”.

The variants in a further test derive from B4. As to conditions: with rmd3_human RMDN3, Q96TC7.
In the case of MAENHAQNKAKLISETRRRFEAEYVTDKSDKYDARDVERLQQDDNWVESYLSWRHNIVDETLKMLDESFQWRKEISVNDLNESSIPRWLLEIGVIYLHGYDKEGNKLFWIRVKYHVKDQKTILDKKKLIAFWLERYAKRENGKPVTVMFDLSETGINSIDMDFVRFIINCFKVYYPKYLSKIVIFDMPWLMNAAFKIVKTWLGPEAVSLLKFTSKNEVQDYVSVEYLPPHMGGTDPFKYSYPPLVDDDFQTPLCENGPITSEDETSSKEDIESDGKETLETISNEEQTPLLKKINPTESTSKAEENEKVDSKVKAFKKPLSVFKGPLLHISPAEELYFGSTESGEKKTLIVLTNVTKNIVAFKVRTTAPEKYRVKPSNSSCDPGASVDIVVSPHGGLTVSAQDDFDIMAAEMEQSSGTGPAELTQFWKEVPRNKVMEHRLRCHTVESSKPNTLTLKDNAFNMSDKTSEDICLQLSRLLESNRKLEDQVQRCIWFQQLLLSLTMLLLAFVTSFFYLLYS [R404D;L406D], the “effect of a mutation on the interaction” value is given as “disrupting interaction strength”.

Variants of B5 are the subject of the next test. As to conditions: with mspd2_human MOSPD2, Q8NHP6.
On to MNHLPEDMENALTGSQSSHASLRNIHSINPTQLMARIESYEGREKKGISDVRRTFCLFVTFDLLFVTLLWIIELNVNGGIENTLEKEVMQYDYYSSYFDIFLLAVFRFKVLILAYAVCRLRHWWAIALTTAVTSAFLLAKVILSKLFSQGAFGYVLPIISFILAWIETWFLDFKVLPQEAEEENRLLIVQDASERAALIPGGLSDGQAASPPESEAGSEEAEEKQDSEKPLLEL [F208A;Y209A], for which the “effect of a mutation on the interaction” value is “disrupting interaction strength”.
